Test results as given in patent US11767353B2, “Trail compositions with reduced immunogenicity” (Theraly Fibrosis, Inc., priority 2020, dated 2023).

How the values were obtained:
[1] = system: quiescent primary human hepatic stellate cells (HSCs); test: Cell cytotoxicity assay on quiescent hepatic stellate cells (off-target); format: cell-based; settings: high concentrations (100 nM)
Method: In addition to the standard physico-chemical characterization, the leads were tested for the target potency and off-target toxicity. Initially, selective apoptotic activities of various TLY012 leads were tested in normal (off-target) and myofibroblasts (target cells) by utilizing quiescent and activated primary human hepatic stellate cells (HSCs) respectively. Briefly, quiescent and culture-activated HSCs were incubated with TLY012 leads and cell viability was determined by cell cytotoxicity assays.

[2] = Single-dose pharmacokinetics in Cynomolgus monkeys (ELISA, serum)
Description: PK parameters were addressed in Cynomolgus monkeys. This was a single dose, parallel group, dose escalation study in 5 males and 5 females normal Cynomolgus monkeys ranging in age from 34 to 44 months. At the start date of the study body weights ranged from 2.9 to 3.9 kg for males and 2.9 to 3.2 kg for females. Blood samples were collected at time point indicated in Table 3 and serum samples prepared for analyzing drug levels.
A sandwich enzyme-linked immunosorbent assay (ELISA) for human TRAIL was developed to measure the concentrations of TLY012 in monkey serum. Briefly, serum samples were diluted in 0.5% normal monkey serum and incubated with anti-TRAIL capturing antibodies immobilized on ELISA plates. Test samples were analyzed at 1:200-1:168000 dilutions (depending on the predicted concentrations) to fit into the range of the standard curve (97 pg/mL-12.5 ng/mL). All data within the assay range were reported and provided for pharmacokinetic analysis
A compartment model independent pharmacokinetic analysis was conducted on dose and serum concentration-time data with Phoenix 64 WinNonlin software. The parameters addressed: maximum serum concentrations (Cmax), time (Tmax) to reach Cmax, time (Tlast) to reach the last quantifiable concentration (Clast), elimination half-life (t½). Area under the curve from zero to Clast (AUClast), the total area under the curve from zero to infinity (AUC). Total systemic clearance (CL) and steady state volume of distribution (Vss) was calculated for IV group. Clearance (CL/F) and volume of distribution (Vz/F) and bioavailability (F) was computed for the SC groups. In addition, dose-exposure relationship was evaluated by linear regression analysis.

[3] = system: orthotopic xenografts of mouse KPC cells (UN-KPC-960); test: Orthotopic pancreatic xenografts of mouse KPC cells in B6.129 mice; format: in vivo
Method: To generate the solid tumor, 10^7 of mouse pancreatic ductal adenocarcinoma UN-KPC-960-luc2 cells suspended in 100 μl PBS were inoculated into flank of syngeneic B6.129 mice. The KPC tumors from the donor mice were excised under sterile conditions once the tumor was grown up to […] in diameter. The donor tumors were cut into 1-1.5 mm^3 pieces using surgical blade.
For the orthotopic xenograted tumors in pancreas, a laparotomy via left flank incision was performed to expose the pancreatic head and donor tumor pieces were inserted into the pancreas of recipient B6.129 mice (n=7/group) followed by closing in two layers with 5-0 absorbable sutures. Two weeks after the tumor transplantation, mice were injected with TLY012 via intraperitoneal route (10 mg/kg, every other day) and/or anti-PD-L1 (B7-H1, anti-mouse PD-L1, 2.5 mg/kg, twice of a week) for 2 weeks. Transplanted animals were imaged once a week for 5 weeks. Bioluminescent images using IVIS were acquired 10-15 minutes after intraperitoneal administration of D-Luciferin (150 mg/kg) (GOLDBIO, St. Louis, Mo., USA).
For tumor volume studies, orthotopic xenograted tumors were generated in pancreas. A laparotomy via left flank incision was performed to expose the pancreatic head and 5×10^6 of UN-KPC-960 cells were transplanted into the pancreas of recipient B6.129 mice (n=5/group) followed by closing in two layers with 5-0 absorbable sutures. four weeks after the transplantation, mice were injected with TLY012 via intraperitoneal route (10 mg/kg, every other day) or saline for 2 weeks. Then excised tumors were studied by: a) captured image and tumor volume of ½ab^2, and b) measured collagen and α-SMA positive area after TLY012 treatment using Sirius red and anti-α-SMA staining
Paraffin sectioned KPC tumor samples were used for immunofluorescence staining (IF) stain with α-SMA and either CD4 or CD8. Tissues were deparaffinized, hydrated, and heated in citrate buffer (Thermo Fisher Scientific) by microwave for antigen retrieval. Slides were washed, treated with blocking solution (3% of normal horse serum, Vectastain ABC System, Vector Labs, Burlingame, Calif.), and primary antibodies, rabbit anti-CD4 antibody (Abcam, ab183685) or rabbit anti-CD8 antibody (Abcam, ab217344) were applied with mouse anti-α-SMA antibody. Tissues were incubated overnight at 4° C., washed and anti-rabbit IgG conjugated with Alexa fluor 488 and anti-mouse IgG conjugated with Alexa fluor 633 (Thermo Fisher Scientific) were applied and incubated at room temperature. After washing the slides, samples were mounted with Fluorescence Mounting Medium with DAPI and captured under Axiovert microscope (Carl Zeiss Microscopy, LLC. Thornwood, N.Y.).
The excised tumors were immediately fixed in 10% buffered formalin, embedded in paraffin, and cut at 4 μm thickness. The sections were then stained for Masson's Trichrome or Sirius-Red staining for determining the collagen deposition. Stained tissues were imaged under a light microscope (Nikon Eclipse E600 connected with Nikon DS-Fi2 camera, Nikon USA). Stained pancreatic tissues were randomly selected 10 photos from individual mice, and the positively stained area was quantified using Image J software (NIH, Bethesda, Md.).

TLY012: PEGylated (5 kDa PEG-aldehyde) recombinant human TRAIL (114-281) fused to modified isoleucine zipper (miLZ) at N-terminus; SEQ ID NO:30 trimer
effect / off-target toxicity on quiescent HSCs [1]: no effect | effect / off-target toxicity on quiescent HSCs ([1]; listed as TLY012 leads): no off-target toxicity | AUC ([2]; IV 10 mg/kg, female (ID 401)): 7780 µg·h/mL | AUCext ([2]; IV 10 mg/kg, female (ID 401)): 0.185% | Cmax ([2]; IV 10 mg/kg, female (ID 401)): 319 µg/mL | Tlast ([2]; IV 10 mg/kg, female (ID 401)): 360 h | Tmax ([2]; IV 10 mg/kg, female (ID 401)): 0.250 h | AUC ([2]; IV 10 mg/kg, male (ID 1)): 8590 µg·h/mL | AUCext ([2]; IV 10 mg/kg, male (ID 1)): 0.411% | Cmax ([2]; IV 10 mg/kg, male (ID 1)): 289 µg/mL | Tlast ([2]; IV 10 mg/kg, male (ID 1)): 360 h | Tmax ([2]; IV 10 mg/kg, male (ID 1)): 0.250 h | AUC ([2]; SC 2 mg/kg, female (ID 501)): 836 µg·h/mL | AUCext ([2]; SC 2 mg/kg, female (ID 501)): 1.45% | Cmax ([2]; SC 2 mg/kg, female (ID 501)): 12.1 µg/mL | F (absolute bioavailability) ([2]; SC 2 mg/kg, female (ID 501)): 53.7% | Tlast ([2]; SC 2 mg/kg, female (ID 501)): 264 h | Tmax ([2]; SC 2 mg/kg, female (ID 501)): 12.0 h | AUC ([2]; SC 2 mg/kg, male (ID 101)): 642 µg·h/mL | AUCext ([2]; SC 2 mg/kg, male (ID 101)): 0.779% | Cmax ([2]; SC 2 mg/kg, male (ID 101)): 10.8 µg/mL | F (absolute bioavailability) ([2]; SC 2 mg/kg, male (ID 101)): 37.4% | Tlast ([2]; SC 2 mg/kg, male (ID 101)): 264 h | Tmax ([2]; SC 2 mg/kg, male (ID 101)): 6.00 h | AUC ([2]; SC 10 mg/kg, female (ID 601)): 6190 µg·h/mL | AUCext ([2]; SC 10 mg/kg, female (ID 601)): 0.266% | Cmax ([2]; SC 10 mg/kg, female (ID 601)): 52.7 µg/mL | F (absolute bioavailability) ([2]; SC 10 mg/kg, female (ID 601)): 79.6% | Tlast ([2]; SC 10 mg/kg, female (ID 601)): 264 h | Tmax ([2]; SC 10 mg/kg, female (ID 601)): 48.0 h | AUC ([2]; SC 10 mg/kg, male (ID 201)): 6480 µg·h/mL | AUCext ([2]; SC 10 mg/kg, male (ID 201)): 0.0231% | Cmax ([2]; SC 10 mg/kg, male (ID 201)): 51.7 µg/mL | F (absolute bioavailability) ([2]; SC 10 mg/kg, male (ID 201)): 75.4% | Tlast ([2]; SC 10 mg/kg, male (ID 201)): 360 h | Tmax ([2]; SC 10 mg/kg, male (ID 201)): 24.0 h | AUC ([2]; SC 50 mg/kg, female (ID 701)): 44200 µg·h/mL | AUCext ([2]; SC 50 mg/kg, female (ID 701)): 1.28% | Cmax ([2]; SC 50 mg/kg, female (ID 701)): 296 µg/mL | F (absolute bioavailability) ([2]; SC 50 mg/kg, female (ID 701)): 114% | Tlast ([2]; SC 50 mg/kg, female (ID 701)): 360 h | Tmax ([2]; SC 50 mg/kg, female (ID 701)): 24.0 h | AUC ([2]; SC 50 mg/kg, male (ID 301)): 33400 µg·h/mL | AUCext ([2]; SC 50 mg/kg, male (ID 301)): 3.13% | Cmax ([2]; SC 50 mg/kg, male (ID 301)): 186 µg/mL | Tlast ([2]; SC 50 mg/kg, male (ID 301)): 264 h | Tmax ([2]; SC 50 mg/kg, male (ID 301)): 72.0 h | F (absolute bioavailability) ([2]; SC 50 mg/kg, male (ID 301), 50 mg/kg): 77.88% | F (absolute bioavailability) ([2]; SC 50 mg/kg, male (ID 301), listed as TYL012, 50 mg/kg): 77.8% | dose relationship of maximum serum (Cmax) concentrations ([2]; dose range 2-50 mg/kg): increased dose proportionately | Percent survival ([3]; Day 0): 100% | Bioluminescence activity (Total Counts), Mean ([3]; Day 14): 72300 Total Counts | Bioluminescence activity (Total Counts), Mean ([3]; Day 21): 233157.143 Total Counts | Bioluminescence activity (Total Counts), Mean ([3]; Day 28): 185128.571 Total Counts | Bioluminescence activity (Total Counts), Mean ([3]; Day 35): 390357.143 Total Counts | Percent survival ([3]; Day 35): 100% | tumor volume, Average ([3]; TLY012 i.p. 10 mg/kg every other day and/or anti-PD-L1 2.5 mg/kg twice a week, 2 weeks): 135.0695 mm3 | levels of collagen (fibrosis), immunohistochemistry ([3]; TLY012 i.p. 10 mg/kg every other day for 2 weeks): decreased the levels of collagen | tumor volume compared to the saline-treated group ([3]; TLY012 i.p. 10 mg/kg every other day for 2 weeks, FIG. 14): reduced the tumor volume | cytotoxic T cell (CD4, CD8) infiltration to the tumor site ([3]; double immunofluorescence staining, vs saline): enhanced cytotoxic T cell infiltration to the tumor site
